This is an account of results in paper PMC8514580, “Insight into the interaction between the RNA helicase CGH-1 and EDC-3 and its implications” (Scientific Reports, 2021).

Substitutions are numbered along the chain they refer to. Like-named read-outs stand apart in the source and are kept apart here. No end group written: not given here.

The target of one test is CGH-1_248-420^F355A (Caenorhabditis elegans, UniProt Q95YF3, F355A). The note with it: ITC, 20 °C, pH 7.5, 150 mM NaCl, CGH-1 F355A. The procedure:
Expression plasmids regarding CGH-1 and CAR-1 were constructed as previously described. In brief, the cDNA fragments encoding CGH-1 RecA2 (residues 248–420), CAR-1 FDF-TFG (residues 184–268) were amplified by PCR from C. elegans genome library and cloned into the NdeI and XhoI site of a modified pET-28a (Novagen) vector (p28a), in which a thrombin protease cleavage site was removed.
CGH-1 protein expression and purification were performed described as in our most recent paper. In brief, proteins were expressed in E. coli Gold (DE3) strain (Novagen). […] Cells were resuspended in Buffer A (20 mM Tris–HCl, pH 7.5, 1 M NaCl), and then lysed using high pressure at 4 °C. Proteins were initially purified by Ni-chelating resin (Qiagen), and further purified by size exclusion chromatography (SEC) on a Superdex 75 column (GE healthcare) in Buffer A. The purified proteins were dialyzed into Buffer B (20 mM Tris–HCl, pH 7.5, 150 mM NaCl).
A peptide containing the C. elegans EDC-3 FDF fragment (residues 235–271) and PATR-1 fragment (residues 30–67) were synthesized from GL Biochem (Shanghai, China) Co., Ltd, respectively. Stock solutions of peptide were prepared in Buffer B described above, and were adjusted to pH 7.5 ± 0.02 for subsequent experiments.
ITC assays were performed as previously described. In brief, it was carried out on a MicroCal PEAQ-ITC (Malvern) at 20 °C with the following settings: reference power, 5 μcal/s; initial delay, 60 s; stir speed, 750 rpm; spacing time, 120 s. Proteins (or its mutants) and peptides were adjusted to 0.05 mM and 0.5 mM, respectively. Experiments were initialed by injection of 1 μl each of peptide into the sample cell (200 μl) filled with protein (or its mutants) solution, followed by 18 injections of 2 μl. The ITC data were fitted with a one-binding-site model using the Origin analysis software.
A general note: In ITC the heat of successive injections is recorded.

In another test the target is T1, CGH-1_(248–420) Q266A (C. elegans, UniProt Q95YF3 248-420, Q266A).
T1 construct: Mutant of m1 made with the MutanBEST kit; source: E. coli Gold (DE3), purified (Ni-chelating resin, SEC Superdex 75)
T1 sequence (looked up): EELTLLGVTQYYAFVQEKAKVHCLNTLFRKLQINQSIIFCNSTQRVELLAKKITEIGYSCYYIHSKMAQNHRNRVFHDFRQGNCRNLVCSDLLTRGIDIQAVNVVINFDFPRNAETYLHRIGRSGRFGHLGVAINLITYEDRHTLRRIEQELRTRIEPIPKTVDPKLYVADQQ
Description: ITC; ligand (peptide or CAR-1 fragment, 0.5 mM) injected into CGH-1_(248-420) or mutant (0.05 mM) in the cell; 20 °C; Buffer B (20 mM Tris-HCl pH 7.5, 150 mM NaCl); one-binding-site model. To be noted: both partners purified.

Another test deals with T2, CGH-1_(248–420) E396A (C. elegans, UniProt Q95YF3 248-420, E396A).
T2 construct: Mutant of m1 made with the MutanBEST kit; source: E. coli Gold (DE3), purified (Ni-chelating resin, SEC Superdex 75)
T2 sequence (looked up): T1 sequence (looked up) with A19Q, E149A
The test is described as above. To be noted: both partners purified.

The target of the next test is T3, CGH-1_(248–420) K277E (C. elegans, UniProt Q95YF3 248-420, K277E).
T3 construct: Mutant of m1 made with the MutanBEST kit; source: E. coli Gold (DE3), purified (Ni-chelating resin, SEC Superdex 75)
T3 sequence (looked up): T1 sequence (looked up) with A19Q, K30E
The test is described as above. To be noted: both partners purified.

For the next test, the target named is T4, CGH-1_(248–420) K277A (C. elegans, UniProt Q95YF3 248-420, K277A).
T4 construct: Mutant of m1 made with the MutanBEST kit; source: E. coli Gold (DE3), purified (Ni-chelating resin, SEC Superdex 75)
T4 sequence (looked up): T1 sequence (looked up) with A19Q, K30A
Described as above. To be noted: both partners purified.

The target in a further test is T5, CGH-1_(248–420) R393A (C. elegans, UniProt Q95YF3 248-420, R393A).
T5 construct: Mutant of m1 made with the MutanBEST kit; source: E. coli Gold (DE3), purified (Ni-chelating resin, SEC Superdex 75)
T5 sequence (looked up): T1 sequence (looked up) with A19Q, R146A
The description is as above. The note with it: both partners purified.

Test [1] has as its target T6, CGH-1_(248–420) wild type (CGH-1 RecA2 domain) (C. elegans, UniProt Q95YF3 248-420).
T6 construct: Cloned into NdeI/XhoI of a modified pET-28a in which the thrombin cleavage site was removed; also called CGH-1_248-420^WT; source: E. coli Gold (DE3), purified (Ni-chelating resin, SEC Superdex 75)
T6 sequence (looked up): T1 sequence (looked up) with A19Q
Described as above. The note with it: both partners purified.

For a further test, the target named is T7, CGH-1_(248–420) H269A (C. elegans, UniProt Q95YF3 248-420, H269A).
T7 construct: Mutant of m1 made with the MutanBEST kit; source: E. coli Gold (DE3), purified (Ni-chelating resin, SEC Superdex 75)
T7 sequence (looked up): T1 sequence (looked up) with A19Q, H22A
Described as above. To be noted: both partners purified.

Test [2] has as its target T8, CGH-1_(248–420) 4A mutant (His269, Cys270, Thr273 and Leu274 to Ala) (C. elegans, UniProt Q95YF3 248-420, His269 to Ala | Cys270 to Ala | Thr273 to Ala | Leu274 to Ala).
T8 construct: Mutant of m1 made with the MutanBEST kit; also called four-alanine mutant; source: E. coli Gold (DE3), purified (Ni-chelating resin, SEC Superdex 75)
T8 sequence (looked up): T1 sequence (looked up) with A19Q, H22A, C23A, T26A, L27A
The test is described as above. The note with it: both partners purified.

The next test has as its target T9, CGH-1_(248–420) F261A (C. elegans, UniProt Q95YF3 248-420, F261A).
T9 construct: Mutant of m1 made with the MutanBEST kit; source: E. coli Gold (DE3), purified (Ni-chelating resin, SEC Superdex 75)
T9 sequence (looked up): T1 sequence (looked up) with F14A, A19Q
The test is described as above. The note with it: both partners purified.

CGH-1_248-420^F355A, sequence (Q95YF3 248-420 F355A): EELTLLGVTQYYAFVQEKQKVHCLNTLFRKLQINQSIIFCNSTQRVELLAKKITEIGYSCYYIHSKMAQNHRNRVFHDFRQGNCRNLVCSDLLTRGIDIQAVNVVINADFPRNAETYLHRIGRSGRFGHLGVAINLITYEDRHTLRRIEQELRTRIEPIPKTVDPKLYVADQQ

Regarding “SDEDHNIFDDEFDAANDETFGGGLDNIGENAELENYAT [PATR-1_30–67]”, the “KD / binding (in words)” value is “almost abolished the binding” at CGH-1_248-420^F355A, “almost abolishes the binding” on CGH-1_248-420^F355A (listed as CePATR-1_30–67), “No binding” on CGH-1_248-420^F355A (listed as PATR1 30-67) and “undetectable binding” at CGH-1_248-420^F355A (listed as PATR-1 peptide).

B1: EDC-3 FDF peptide (EDC-3_(235–271)) (peptide)
peptide: LADPIDFDLDSDFDFAENLKLFEKDENDDQYYETVEK
notes: Enhancer of decapping-3 (EDC-3, also called LSm16), C. elegans, FDF fragment, residues 235-271; Printed with free NH2 and COOH ends; also called EDC-3 peptide; EDC-3 FDF-FEK peptide; source: synthetic peptide (GL Biochem, Shanghai)
On to B1, for which the Kd (commonly the constant that tells how readily two partners part at equilibrium) came out at 1750 ± 380 nM with CGH-1_(248–420) Q266A; 850 ± 110 nM in the test with CGH-1_(248–420) E396A; 5970 ± 510 nM in the test with CGH-1_(248–420) K277E; 2740 ± 340 nM with CGH-1_(248–420) K277A; 2070 ± 280 nM with CGH-1_(248–420) R393A; 2550 ± 320 nM with CGH-1_(248–420) H269A. For the same molecule, the Kd was found to be 8750 ± 3640 nM in [2] and 1160 ± 240 nM in the test with CGH-1_(248–420) F261A. For the same molecule, the dH with CGH-1_(248–420) Q266A is -12.1 ± 0.51 kcal per mol; with CGH-1_(248–420) E396A, -16.1 ± 0.31 kcal per mol; with CGH-1_(248–420) K277E, -11.5 ± 0.3 kcal per mol; with CGH-1_(248–420) K277A, -15.2 ± 0.47 kcal per mol; with CGH-1_(248–420) R393A it was -17.3 ± 0.47 kcal per mol; in test [1], -17.6 ± 0.09 kcal per mol. The values for the dH (with CGH-1_(248–420) H269A; in [2]; in the test with CGH-1_(248–420) F261A) were -12.5 ± 0.34 kcal per mol, -5.94 ± 0.89 kcal per mol and -14.1 ± 0.48 kcal per mol, respectively. Moreover, the stoichiometry N (in general, a count of units in the complex or per binding partner) amounted to 1.1 with CGH-1_(248–420) Q266A; 1 in the test with CGH-1_(248–420) E396A; 1.12 in the test with CGH-1_(248–420) K277E; 1.22 with CGH-1_(248–420) K277A; 0.99 in the test with CGH-1_(248–420) R393A; 1.07 in test [1]. Further, the “stoichiometry N” value was found to be 1.03 with CGH-1_(248–420) H269A, 0.79 in [2] and 1.09 with CGH-1_(248–420) F261A.

B2: CAR-1 FDF-TFG (CAR-1_(184–268)) (domain or fragment, C. elegans, UniProt Q9XW17 184-268, looked up)
chain: LKFESDFDFEKANEKFQEVLVDNLEKLNIEDKAEPEVEEKKDAAFYDKKTSFFDNISCESLEKAEGKTGRPDWKKERETNQETFG
notes: thrombin site of the vector removed; also called CAR-1_184-268^WT; recombinant CAR-1_(184–268) protein; source: recombinant; plasmid in modified pET-28a
With B2, in test [1], the affinity, expressed as Kd, was 3030 ± 210 nM; the dH is -27 ± 0.43 kcal per mol; the “stoichiometry N” value was found to be 0.89.
